Reference: article PMC9606263, “Polerovirus N-terminal readthrough domain structures reveal molecular strategies for mitigating virus transmission by aphids” (Nature Communications, 2022)

Tests used:
[1] = target: N-terminal portion of the readthrough domain of turnip yellows virus (TuYV NRTD; residues 224-459) (turnip yellows virus); experiment: SEC-MALS; loaded at 4 mg/mL on Superdex 200 10/300 Increase; 20 mM HEPES pH 7.5, 150 mM KCl, 1 mM DTT; 0.5 ml/min
[2] = target: the molecule itself; experiment: as above

Molecule | stoichiometry N [1] | stoichiometry N [2]
N-terminal portion of the readthrough domain of turnip yellows virus (TuYV NRTD; residues 224-459) (from UniProt P09516 224-459) (domain or fragment) | 2 | 
N-terminal portion of the potato leafroll virus readthrough domain (PLRV NRTD; residues 230-458), native (domain or fragment, Readthrough protein (RTP, CP-RTD fusion) of potato leafroll virus, N-terminal portion of the readthrough domain, residues 230-458 of the complete RTP fusion; 6xHis-NusA removed with HRV3C protease; also called WT PLRV ^NRTD; source: E. coli BL21(DE3), purified (nickel column, HiTrap Q, SEC); not shown: 6xHis, N-terminal, cleaved; NusA, N-terminal, cleaved) HERFIAYVGIPMLTIQARENDDQIILGSLGSQRMKYIEDENQNYTKFSSEYYSQSSMQAVPMYYFNVPKGQWSVDISCEGYQPTSSTSDPNRGRSDGMIAYSNADSDYWNVGEADGVKISKLRNDNTYRQGHPELEINSCHFREGQLLERDATISFHVEAPTDGRFFLVGPAIQKTAKYNYTISYGDWTDRDMELGLITVVLDEHLEGTGSANRVRRPPREGHTYMASP |  | 2
